Measured values published in US20250043002A1.

Target: human PD1 expressed on Jurkat/AP1-Luc/hPD1 cells (human) (UniProt Q15116)
Assay: cell-based or functional assay

Sequence of human PD1 expressed on Jurkat/AP1-Luc/hPD1 cells (human) (Q15116 25-288): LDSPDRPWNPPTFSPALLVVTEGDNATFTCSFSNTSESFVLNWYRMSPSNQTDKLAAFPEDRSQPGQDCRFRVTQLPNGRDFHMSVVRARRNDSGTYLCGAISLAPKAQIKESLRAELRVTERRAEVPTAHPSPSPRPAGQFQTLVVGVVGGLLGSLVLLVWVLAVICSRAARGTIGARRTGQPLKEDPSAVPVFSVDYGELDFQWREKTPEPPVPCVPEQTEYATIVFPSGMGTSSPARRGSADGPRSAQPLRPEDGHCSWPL

AP-1 luciferase EC50, WSU-DLCL2/hPD-L1 + Jurkat/AP1-Luc/hPD1: 0.29 nM | AP-1 luciferase MAX (RLU), WSU-DLCL2/hPD-L1 + Jurkat/AP1-Luc/hPD1: 1.1e+06 RLU
B1: REGN2810 (cemiplimab, LIBTAYO), anti-PD1 antibody (antibody, INN chains, looked up, V domains shown)
VH: EVQLLESGGVLVQPGGSLRLSCAASGFTFSNFGMTWVRQAPGKGLEWVSGISGGGRDTYFADSVKGRFTISRDNSKNTLYLQMNSLKGEDTAVYYCVKWGNIYFDYWGQGTLVTVSS
VL: DIQMTQSPSSLSASVGDSITITCRASLSINTFLNWYQQKPGKAPNLLIYAASSLHGGVPSRFSGSGSGTDFTLTIRTLQPEDFATYYCQQSSNTPFTFGPGTVVDFR
